Experimental data reported in patent US20230146939A1, “TREATMENT FOR HUMAN CORONAVIRUS INFECTION” (THE ADMINISTRATORS OF THE TULANE EDUCATIONAL FUND, priority 2020, published 2023).

Molecular target: α5β1 integrin, P08648
Test: competition ELISA, α5β1-coated plate, inhibition of trimeric spike binding

Chain of α5β1 integrin, P08648 (P08648 42-995, chain 1 of 2): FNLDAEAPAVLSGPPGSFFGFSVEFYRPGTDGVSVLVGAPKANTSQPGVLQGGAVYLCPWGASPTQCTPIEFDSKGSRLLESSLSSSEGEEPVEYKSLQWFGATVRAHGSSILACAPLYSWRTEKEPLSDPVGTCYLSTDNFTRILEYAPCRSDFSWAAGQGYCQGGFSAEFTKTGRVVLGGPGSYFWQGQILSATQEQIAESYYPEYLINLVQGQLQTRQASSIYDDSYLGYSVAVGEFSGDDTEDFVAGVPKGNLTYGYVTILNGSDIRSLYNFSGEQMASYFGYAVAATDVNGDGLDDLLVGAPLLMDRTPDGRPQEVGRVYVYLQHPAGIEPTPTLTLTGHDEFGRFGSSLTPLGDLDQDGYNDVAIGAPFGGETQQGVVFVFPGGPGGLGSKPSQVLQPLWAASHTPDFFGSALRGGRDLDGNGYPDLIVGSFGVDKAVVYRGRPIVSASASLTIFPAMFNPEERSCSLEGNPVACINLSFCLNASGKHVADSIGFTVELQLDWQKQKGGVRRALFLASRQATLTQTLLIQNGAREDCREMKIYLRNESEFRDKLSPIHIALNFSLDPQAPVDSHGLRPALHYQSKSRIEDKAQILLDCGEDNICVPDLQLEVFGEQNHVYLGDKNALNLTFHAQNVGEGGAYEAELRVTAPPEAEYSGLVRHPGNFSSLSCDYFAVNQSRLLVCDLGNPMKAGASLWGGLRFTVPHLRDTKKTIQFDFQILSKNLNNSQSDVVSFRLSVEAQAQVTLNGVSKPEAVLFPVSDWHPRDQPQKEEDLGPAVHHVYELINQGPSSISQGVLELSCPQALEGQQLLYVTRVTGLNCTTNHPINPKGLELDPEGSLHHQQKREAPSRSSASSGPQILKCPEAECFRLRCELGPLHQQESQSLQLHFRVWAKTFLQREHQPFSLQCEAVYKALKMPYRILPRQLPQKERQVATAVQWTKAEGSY
Chain of α5β1 integrin, P08648 (P05556 21-728, chain 2 of 2, further chain): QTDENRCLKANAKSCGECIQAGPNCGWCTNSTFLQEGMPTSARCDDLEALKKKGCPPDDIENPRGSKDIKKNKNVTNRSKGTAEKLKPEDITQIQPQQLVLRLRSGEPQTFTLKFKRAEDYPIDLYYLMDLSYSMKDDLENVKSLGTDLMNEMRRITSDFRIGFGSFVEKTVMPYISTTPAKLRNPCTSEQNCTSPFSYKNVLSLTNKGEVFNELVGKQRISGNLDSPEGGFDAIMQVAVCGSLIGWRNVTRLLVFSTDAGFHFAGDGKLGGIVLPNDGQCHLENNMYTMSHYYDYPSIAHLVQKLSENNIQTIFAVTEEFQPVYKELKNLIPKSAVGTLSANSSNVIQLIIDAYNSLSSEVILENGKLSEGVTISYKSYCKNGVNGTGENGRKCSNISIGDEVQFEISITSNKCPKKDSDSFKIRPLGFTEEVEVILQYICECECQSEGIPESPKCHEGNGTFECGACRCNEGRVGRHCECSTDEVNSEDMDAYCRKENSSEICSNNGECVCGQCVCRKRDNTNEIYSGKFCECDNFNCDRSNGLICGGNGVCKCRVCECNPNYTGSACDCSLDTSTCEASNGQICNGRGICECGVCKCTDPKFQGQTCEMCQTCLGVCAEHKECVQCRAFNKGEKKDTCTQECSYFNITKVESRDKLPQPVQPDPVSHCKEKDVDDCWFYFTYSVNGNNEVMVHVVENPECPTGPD

## PHSCN (modifications not checked) [ATN-161]
  most effective dose tested: 100 nM
